Tested on: MS2 coat protein
Test: apparent KD of MS2 coat protein; higher = weaker reporter binding
Details: Eterna round: R107; input ligand: arginine 13.2 mM
Procedure, shortened: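 For every design, apparent KD is the median of normalised binding-curve fits from its clusters. The RNA switches were transcribed on-chip from Illumina sequencing clusters and titrated with SNAP-549-labelled MS2 coat protein (twofold steps, 0.7 or 1.5 nM to 3 µM; 0.8–1.5 h to 10–20 min per step). Titrations used 100 mM Tris-HCl pH 7.5, 80 mM KCl, 4 mM MgCl2, without or with constant ligand.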

Sequence | apparent KD of MS2 coat protein [nM]
UAGUUGUAGUCGGCCGCCACUGUGAGCAUGGUUAACAUGAGGAUCACCCAUGUCCCGUACUAUAACAGGACCGGGACGUAGUUGC [#10 Same State - Tryptophan B] | 31.1
GCUAGGUCUACGGCCGCCACUAGACGUGGGUUAAACAUGAGGAUCACCCAUGUGCUACAGGCGCAUAGGACCGGGUAGACCUAGC [SSTB NP+V+V2 #9 +-Same Structure] | 86.5
GGGCAAGAGGGAAGGAGCGUCAGCUGAGUCACAUGAGGAUCACCCAUGUAGCACAUAGUGUGACAGGUAGGUCGCCCUCUGCCCU [SS-ArgB5] | 11.1
UUCGUUUACGGAAGGAGCGACGGACAUCGGUGAUCUAUGCACAUGAGGAUCACCCAUGUACGUCAGGUAGGUCGCCGUUAAGAGU [XArg-B28] | 28.4
GGUCUCUGGAGCGAUACCAGCUUAAGUGUACUGGCCAGGUACAUGAGGAUCACCCAUGUAAGCCCUUGGCAGCGCUCCAGAGACC [#1 Exclusion - Theophylline B Attempt #14 (HarryS)] | 16.7
AAGGUGAUCCGUGAUACCAGCUCAACAUGAGGAUCACCCAUGUAACGGACGAAAGUCCGGAGCCCUUGGCAGCACGGUUGCCAAG [(M)'-(Theo1)-(Ms2)-(Theo2)-(M'')-(T2)'_Design1b] | 29.4
AAACAUGACAUGGAUACCAGACACAUGAGGAUCACCCAUGUUGAGGAUCACCCAUGUCCCGUCCCUUGGCAGCCAGCAUGAGGAU [Exclusion Theophylline B 2] | 8.96
GAGGGUGAAUCUCUAGUCCGUUUGACGGAUACCAGCGAGAGGUAUCGCCCUUGGCAGCCGACGACAUGAGGAUCACCCAUGUUAA [#07 Exclusion-TheophyllineA] | 22.2
ACAUUAGCCACGGCCGCCACUGCUUUAUGAUUAUAAGGAUUAAUGAACAUGAGGAUCACCCAUGUCAGGACCGGGUGCCUACCAU [SSTryp B #4] | 31.4
GAUAUGGAAACAUGUCAGAUCCUUACCGGUCGAGGACCGGUACGGCCGCCACUCGAAAACGAUGUACAUGAGGAUCACCCAUGUA [Ex Tryptophan A 19] | 13.7
GCUUGCUUGUAAGGUUCUGUCCGGCGUCGUCGAGGACCGGUACGGCCGCCACUCGCGCGUUUACAUGAGGAUCACCCAUGUCAUG [theeternabot_exclusion_MS2_Trp_A_49] | 34.3
AAUAAUAAGGCGGCCGCCACUAAACAUGAGGAUCACCCAUGUCUCGAGCGCAUACAUAAGGGAUGUAGGACCGGGCCAAUAAUAA [Exclusion - Tryptophan B (Freestyle 1)] | 19
AGGUGGCGCGGAAGGAGCGAGUUUGCCUAUUACAUGAGGAUCACCCAUGUGGGUAAUGGGACUCAGGUAGGUCGCCGUUGUCGCU [Same State Arginine B GF 27] | 35.6
AGCAACAAGUCGGCCGCCACUCAUUUAACAUGAGGAUCACCCAUGUGAAUAACAUGGUUGUAAUAGAGGACCGGGACAGUUGCAU [JR_SSTryptoB_Sub016] | 205
AGCACUGUGGCGGCCGCCACUACAUAUAGGGUGGUCAGGCCCAUAAUACAUGAGGAUCACCCAUGUAGGACCGGGCCUCAGUGCA [Omei Trp Exc B A v13] | 12.7
ACGAUGCGACAUGAGGAUCACCCAUGUGAUACCAGCCUGGAAACAGGCCCUUGGCAGCACAAAUACUCCAGAAACGCAUCGAAUA [MAT - Exclusion Theophlline A - Mod of Eli - D3] | 96.3
GCUGUGAAGUCGGCCGCCACUGGUUAGUUUAACCUCAUGUAACAUGAGGAUCACCCAUGUAAUGUCAGGACCGGGACAACAGCAA [JR_ExcTryptoB_Sub016] | 131

Sequence | apparent KD of MS2 coat protein [nM]
GAUUGCAUCGAUUCUCCACUCGCACCUGAUACCAGCGAUAGAAUUCGCCCUUGGCAGCAGUACACAUGAGGAUCACCCAUGUUAU [theeternabot_exclusion_MS2_Theo_A_20] | 25.5
ACGAACGAUAGUGAUACCAGACGAACAUGAGGAUCACCCAUGUUAUACACAUGGUUUAUUGUCCCUUGGCAGCACUUUAAGUUCG [JR_ExcTheophyB_Sub006] | 80.1
AAUAACAUGAGGAUCACCCAUGUAAAAGAUACCAGAGUGAUGAUCCUCCCUUGGCAGCUUAAACGCUAUUGGAAACAAUAGCGAA [Mat - Same State Theophlline A - Mod of Eli - D3] | 54.5
AGCGACAUGCAUGAUACCAGCUACAUGAGGAUCACCCAUGUACGUCAGUAAUGACUGUGUAGCCCUUGGCAGCAUAGAGCAUGUU [Exclusion - Theophylline B (Freestyle 15)] | 15.7
AUGCACCUCGUCCAGGCAAUCUUUAGUGAUACCAGCUAACUCCUUGGCCCUUGGCAGCACAUGAGGAUCACCCAUGUGCGACAUC [Tidile] | 11.1
UGUAACAUGAGGAUCACCCAUGUGAGUGAUACCAGACUAGUAUUAGUCCCUUGGCAGCACGUUGGGCGAGUGUAUAGUCUAUGCG [Same State - Theophylline A (Freestyle 14)] | 89.6
AUGGAGACCUCGGCCGCCACUCUCCAUGAGGAUCUCCCAUGUAACAUGAGGAUCACCCAUGUGCUGAGGACCGGGAGGUCCUGAA [Same State Tryptophan B GF 18] | 9.2
GGCUAGUGCAUCGAUACCAGCUACAUGAGGAUCACCCAUGUAGGAAGGGUGGUACUCGAUAGCCCUUGGCAGCGAACACCUCCGG [Quoran] | 18.7
UGUAUGGACUGAAGGAGCGGGAAAUAAACUUGAGGAUCACCCAGGUAAUAGGCGAAAGCCACCCAGGUAGGUCGCAGUCCAUACU | 22
UCGUUUUAGUCGGCCGCCACUGUGAGCAUGGUUAACAUGAGGAUCACCCAUGUCCCGUACUAUAACAGGACCGGGACGUAGUUGC [#09 Same State - Tryptophan B] | 76.4
AUAUGAUCAUACGAUACCAGAAAUGGUAUUCCUUUAUUUCUUACAUGAGGAUCACCCAUGUUCCCUUGGCAGCGUAUGAUCAUAU [ETHB #3] | 125
AAUCCAAGAAAUGAUACCAGUCCCACUCAGGACAUGAGGAUCACCCAUGUAAUACAGGGAGACCCUUGGCAGCAUCGAAUAAACA [theeternabot_sameState_MS2_Theo_B_33] | 178
AAUAACAUGAGGAUCACCCAUGUAAAAGAUACCAGAGUGAUGAUCCUCCCUUGGCAGCUUAAUAACGCUAUCGGAAACGAUAGCG [Mat - Same State Theophlline A - Mod of Eli - D8] | 37.7
GCAUCCUAGUCGGCCGCCACUACAACAUGAGGAUCACCCAUGUGUGGGAGAUCCGUCCUACGAAGUAGGACCGGGACUAGGAUGC [(T1)-(M1)-(M2)-(T)''-(M)'-(T)'-(T2)_Design5_2/18/17] | 110
AUUGUCAAGUCGGCCGCCACUUCUGCCAUGGCCACCAGUCGACAUGAGGAUCACCCAUGUCUCUUAAGGACCGGGACUUUCAAUU [theeternabot_sameState_MS2_Trp_B_6] | 13.1
GGGUGGUAGGCGGCCGCCACUGAUUUUUAUUUAUAGAUGACAUGAGGAUCACCCAUGUAGAUAUGCAGGACCGGGCCUGUUGUUU [aaaO] | 16.6

Source: the supplement of paper PMC9170038
